One data set deals with Ramos cells. Kind of data set: MTT cytotoxicity of calicheamicin on Ramos cells. It is filed as cell-based. The note with it: 24 h, calicheamicin alone. The protocol: (§1) Log-phase MOLM-14, Ramos (RA 1), HT-29, LS174T, or NCI-N87 cells were seeded in 96-well microtiter plates at a density of 20,000 cells/well, 20,000 cells/well, 5,000 cells/well, 5,000 cells/well, and 10,000 cells/well, respectively, in 100 μL of culture medium. HT-29, LS174T, and NCI-N87 cells were allowed to adhere for 24 h before cell culture media was aspirated and replaced with 100 μL of fresh media containing a range of treatment for, 48 (LS174T), 96 (NCI-N87), or 120 (HT-29) h. MOLM-14 and Ramos cells were re-suspended with treatment solutions, where 100 μL of cell-treatment suspension was aliquoted into wells of a 96-well plate for 24 h. Treatment solutions consisted of calicheamicin, MMAE, topotecan, or SN38 with or without immunized animal plasma, purified anti-drug antibody, or antibody-drug conjugate (ADC) with or without plasma or anti-drug antibody. For MOLM-14 and Ramos cells, 25 μL of MTT solution (5 mg/mL in pH 7.4 1× PBS) was added directly to wells following treatment incubation. For adherent cells, treatment media was aspirated from wells and cells were washed three times with 100 μL of fresh media. Following the final wash, 100 μL of complete media and 25 μL of MTT solution were added to each well. Cells were incubated for 4 h in order to allow cells to reduce MTT to formazan dye. Once MTT was reduced, 100 μL of 10% SDS prepared in 0.01 M HCl was added to each well and incubated overnight to solubilize the formazan crystals. Formazan dye was measured at 570 nm and normalized by cell debris at 690 nm.
(§2) Fresh media containing a range of treatment were pre-incubated with or without 100 μM purified sdAb at room temperature for 30 minutes. Log-phase MOLM-14 cells were seeded in 96-well microtiter plates at a density of 20,000 cells/well, and were re-suspended with treatment solutions, where 100 μL of cell-treatment suspension was aliquoted into wells of a 96-well plate for 24 h. 25 μL of MTT solution (5 mg/mL in pH 7.4 1× PBS) was added directly to wells following treatment incubation. […] Formazan dye was measured at 570 nm and normalized by cell debris at 690 nm.

For data set [1], the system named is SK-BR-3 cells. Kind of data set: MTT cytotoxicity assay in SK-BR-3 cells. The class given is cell-based. A general note: Tetrazolium dyes change colour on reduction, which living cells bring about.
The test system of another data set is NCI-N87 cells. Kind of data set: Cell cytotoxicity with exatecan and trastuzumab deruxtecan, NCI-N87 cells. The class given is cell-based. The note with it: for IC50: free exatecan alone. The protocol:
Cells were incubated with the drug mixture for 24 hours at 37° C., 5% CO2. After incubation drug containing cell culture media was aspirated and 250 μL of fresh RPMI was added, allowing cells to grow for another 4 days. Then cell culture media was aspirated and 125 μL of RPMI with a final concentration of 1 mg/ml MTT was added followed by a four-hour incubation. MTT crystals were dissolved in 0.01 M HCL/10% SDS overnight at 37° C. followed by absorbance reading at 570 nm (corrected to 640 nm).

Another data set deals with Lovo cells. Briefly: MTT cytotoxicity of DM1 and DM4 on Lovo cells. The class given is cell-based. The note with it: for IC50: DM1 alone, read-out: IC50 of DM1. As for the experimental part: Log-phase Lovo or MOLM-14 cells were seeded in 96-well microtiter plates at a density of 5,000 cells/well, in 100 μL or 70 μL of culture medium, respectively. […] MOLM-14 cells were re-suspended with treatment solutions, where 100 μL of cell-treatment suspension was aliquoted into wells of a 96-well plate for 24 h. Treatment solutions consisted of DM-4 with or without purified anti-drug sdAb. For MOLM-14 cells, 10 μL of MTT solution (5 mg/mL in pH 7.4 1× PBS) was added directly to wells following treatment incubation. For adherent cells, treatment media was aspirated from wells and cells were washed three times with 100 μL of fresh media. Following the final wash, 100 μL of complete media and 25 μL of MTT solution were added to each well. Cells were incubated for 4 h in order to allow cells to reduce MTT to formazan dye. Once MTT was reduced, 100 μL of 10% SDS prepared in 0.01 M HCl was added to each well and incubated overnight to solubilize the formazan crystals. Formazan dye was measured at 570 nm and normalized by cell debris at 690 nm.

The next data set deals with MOLM-14 cells. Briefly: MTT cytotoxicity of calicheamicin on MOLM-14 cells. It is filed as cell-based, human. The note with it: 24 h, 100 μM peptide or sdAb. The protocol: as §1, §2
Data set [2] can be described thus: Competitive ELISA with free DM4. It is filed as binding. Particulars: for Kd: free DM4, read-out: Estimated KD; for IC50: read-out: Estimated binding affinity IC50 to free DM4. As for the experimental part: To determine the binding affinity of the anti-DM4 sdAbs to DM4-conjugates and free DM4, indirect ELISA and competitive ELISA were employed. Briefly, ELISA plate were coated overnight with 100 μL of neutravidin at different concentration ranging from 1 μg/mL to 10 μg/mL. After blocking with 200 μL of 2% skimmed milk-PBST for 1 h, 100 μL of 1 μM biotin-DM4 solution was added into each well and incubated for 30 min, then 100 μL of purified anti-DM4 sdAb solution at concentration ranging from 0.1 nM to 1 μM was added and incubated for 1 h. Bound sdAbs were detected with HRP conjugated anti-His antibody and TMB substrate. After the linear range of binding was determined via the indirect ELISA, a concentration of anti-DM4 sdAb near the IC50 of binding was selected to proceed with competitive ELISA. For the competitive ELISA, anti-DM4 sdAb concentration was held constant as determined from the indirect ELISA and incubated with increasing concentration of DM4 ranging from 0.1 nM to 1 μM.

In data set [3] the test system is SK-BR-3 cells. Kind of data set: MTT cytotoxicity assay in SK-BR-3 cells. It is filed as cell-based. Particulars: 24 h exposure, 10 μM sdAb. As for the experimental part:
Positive clone sdAbs' DNA in pComb3XSS plasmid was isolated and transferred into pET-22b expression vector in SHuffle cells for expression. SK-BR-3 cells were used to test the anti-DM4 sdAbs effect on DM4 cytotoxicity. Briefly, 2,500 cells/well were seeded into a 96-well plate and allowed to adhere for 24 h before cell culture media was aspirated and replaced with 100 μL of fresh media solution containing with or without 10 μM of anti-DM4 sdAb and a range of DM4 concentration for another 24 h exposure period. The cells were then washed 2 times before replacing with fresh media and allowed to grow for additional 72 h.

“And” between values parts separate entries of the source, which are not always exact repeats. Equal entries are not always repeated. “Also recorded” adds a separate entry of the source. Where two headings read alike, the source gives them in different places.

Usually IC50 stands for the midpoint of a concentration-inhibition curve. A word on the Kd: it is the equilibrium constant for the complex coming apart.

calicheamicin: the IC50 is 2.5 nM and 2.98 nM in the data set with Ramos cells; 2.5 ± 0.224 nM in the data set on Ramos cells (listed as Calicheamicin).
T-DM1 [reference compound]: in the data set on SK-BR-3 cells [1] (24 h, without DMFH1, read-out: IC50 of T-DM1), the IC50 amounted to 0.0128 nM.
In the case of `CC[C@@]1(O)C(=O)OCc2c1cc1n(c2=O)Cc2c-1nc1cc(F)c(C)c3c1c2[C@@H](N)CC3` [exatecan, reference compound], the IC50 with NCI-N87 cells (Homo sapiens, NCI-N87, NCI-N87 cells) is 1.5 nM; in the data set with NCI-N87 cells (NCI-N87 cells), 2.1 nM.
As for `COc1cc2cc(c1Cl)N(C)C(=O)C[C@H](OC(=O)[C@H](C)N(C)C(=O)CCS)[C@]1(C)O[C@H]1[C@H](C)[C@@H]1C[C@@](O)(NC(=O)O1)[C@H](OC)/C=C/C=C(\C)C2` [DM1], the IC50 in the data set with SK-BR-3 cells [1] (24 h exposure, DM1 alone, read-out: IC50 of DM1) is 4.43 nM; in the data set on Lovo cells (6 h exposure), 30.5 nM and 22.1 nM; in the data set on Lovo cells (24 h exposure) it was 3.07 nM and 2.12 nM.
Take “anti-calicheamicin peptide SWWFPQWMAQYPGGGS (SEQ ID NO:2) [C9]”: the “fold change of calicheamicin IC50” value with MOLM-14 cells came to 3.56 fold.
The same measure, in the same setting: with “anti-calicheamicin peptide HSWHWPSWWAGGGGGS (SEQ ID NO:1) [C2]” the figure was 5.69 fold.

B1: DF3A4 (protein)
VHH: QVQLQESGGGLVQPGGSLRLSCAASGSIFGISYMGWYRQAPGKQREPVALITSGGSTYYADSVKGRVTISRDNAKKTVYLQMNSLRPEDTSTYYCAAGFYRSDSPNRYDYWGQGTQVTVSS
modifications: DF3A4
Regarding B1, in the data set with Lovo cells (6 h exposure), the “fold shift of DM4 IC50” value was 5.88 fold. In addition, in the data set with Lovo cells (6 h exposure, 10 μM sdAb), the “fold shift of DM1 IC50” value was 14.8 fold.

B2: DMOH9: affinity matured Anti-DM1/DM4 sdAb, SEQ ID NO:32 (protein)
VHH: QVQLQESGGGLVQPGGSLRLSCAASGSIFGITYMGWYRQAPGKQREPVAMITSGGSTYYADSVKGRVTISRDNAKKTVYLQMNSLRPEDTSTYYCAAGYYRSDSPNRYDYWGQGTQVTVSS
modifications: DMOH9
For the molecule B2, in data set [2], the Kd was 20 nM and 19.9 nM; the IC50 is 20 nM. Besides, the “Fold shifted (DM4 IC50)” value in the data set with SK-BR-3 cells [3] was 210 fold and 209.5 fold.

B3: DF4B12 (protein)
VHH: EVQLVESGGGLVQPGGSLRLSCAASGSIFGISYMGWYRQAPGKQREPVALITSGGDTAYGDSVKGRFTISRDNAKNTVYLQMNSLTPEDTSTFYCAAGFYRSDSPNRYDYWGQGTQVTVSS
modifications: DF4B12
As to B3, the “fold shift of DM4 IC50” value is 15.5 fold with Lovo cells (6 h exposure); 8.66 fold and 9.4 fold in the data set on Lovo cells (24 h exposure, 10 μM sdAb). For the same molecule, the “fold shift of DM1 IC50” value in the data set with Lovo cells (6 h exposure, 10 μM sdAb) came out at 53 fold.

B4: DMFH2 (protein)
VHH: QVQLQESGGGLVQPGGSLRLSCAASGSTFGISYMGWYRQAPGKQREPVAMITSGGSTYYVDSVKGRVTISRDNAKKTVYLQMNSLRPEDTSTYYCAAGFYRSDSPNRYDYWGQGTQVTVSS
modifications: DMFH2
Regarding B4, in data set [2], the Kd is 25 nM and 25.2 nM; the IC50 was 25 nM. For the same molecule, the “Fold shifted (DM4 IC50)” value with SK-BR-3 cells [3] is 150 fold and 149.4 fold.

B5: DMOF8 (protein)
VHH: QVQLQESGGGLVQPGGSLRLSCAASGSIFGISYMGWYRQAPGKQREPVAMITSSGSTYYADSVRGRVTISRANAKKTVYLQMNSLRPEDTSTYYCAAGYYRSDSPNRYDYWGQGTQVTVSS
modifications: DMOF8
Consider B5, for which, in data set [2], the Kd is 26 nM and 26.2 nM; the half-maximal inhibitory concentration (IC50) was 26 nM. Further, in the data set on SK-BR-3 cells [3], the “Fold shifted (DM4 IC50)” value was 104 fold and 104.1 fold.

B6: DMFF2 (protein)
VHH: QVQLQESGGGLVQPGGSLRLSCAASGSIFGISYMGWYRQAPGKQREPVALITSGGSTYYVDSVKGRVTISRDNAKKTVYLQMNSLRPEDTSTYYCAAGYYRSDSPNRYDYWGQGTQVTVSS
modifications: DMFF2
B6: in data set [2], the Kd is 57 nM and 56.6 nM; the IC50 was 57 nM. For the same molecule, the “Fold shifted (DM4 IC50)” value in the data set on SK-BR-3 cells [3] was 95 fold and 93.65 fold.

B7: DMFB8 (protein)
VHH: QVQLQESGGGLVQPGGSLRLSCAASGSIFGISYMGWYRQAPGKQREPVAMITSGGSTYYADSVKGRVTISRDNAKKTVYLQMYSLRPEDTSTYYCAAGYYRSDSPNRYDYWGQGTQVTVSS
modifications: DMFB8
As to B7, the “Fold shifted (DM4 IC50)” value in the data set with SK-BR-3 cells [3] was 140 fold and 140.2 fold.

B8: 8C2 Fab: Fab of 8C2 by papain digestion; heavy SEQ ID NO:4, light SEQ ID NO:5 (antibody)
heavy: MKCSWVIFFLMAVVTGVNSEEVQLQQSGAELVKPGASVKLSCTASGFNIKDTYIHWVKQRPEQGLEWIGMIDLANDNTKYDPKFQGKATIITDTSSNKAYLQVSSLTSEDTAVYYCATWGAIITLGGWGQGTLVTVSAAKTTPPSVYPLAPGSAAQTNSMVTLGCLVKGYFPEPVTVTWNSGSLSSGVHTFPAVLQSDLYTLSSSVTVPSSTWPSETVTCNVAN
light: MSVLTQVLALLLLWLTGARCDIQMTQSPASLSASVGETVTITCRASGNIHNSLAWYQQIKGRSPQLLVYNAKTLADGVPSRFSGSGSGTQYSLKINSLHPEDFGSYYCQHFWSTPFTFGSGTKLEIKRADAAPTVSIFPPSSEQLTSGGASVVCFLNNFYPKDINVKWKIDGSEERQNGVLNSWTDQDSKDSTYSMSSTLTLTKD
modifications: 8C2 Fab heavy chain; 8C2 Fab light chain
For the molecule B8, the “effect on trastuzumab deruxtecan cytotoxicity” value in the data set on NCI-N87 cells (NCI-N87 cells, ADC with 8C2 mAb or Fab) was “did not prevent cell death; also recorded: does not significantly alter”.
